According to patent US10500249B2, “Compositions and methods for preventing or treating diseases, conditions, or processes characterized by aberrant fibroblast proliferation and extracellular matrix deposition” (MOERAE MATRIX, INC., priority 2014, dated 2019):

Experiments:
Assay in all cases: Kinase Profiling Assay
Type in all cases: biochemical
Settings in all cases: 100 μM
[1] = biological target: T1, HIPK2 (h) (Homo sapiens, UniProt Q9H2X6)
T1 construct: purchased Millipore
Method in brief: (§1)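 Activity remaining relative to an uninhibited control was determined by scintillation counting of labeled substrate bound to a negatively charged filter. Radiolabeled phosphate came from ATP; the substrate carried positive charge. Duplicate measurements, within a 266-kinase human panel.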

[2] = biological target: FGFR1(V561M) (h) (Homo sapiens, UniProt P11362, V561M)
FGFR1(V561M) (h), sequence (P11362 22-822 V561M): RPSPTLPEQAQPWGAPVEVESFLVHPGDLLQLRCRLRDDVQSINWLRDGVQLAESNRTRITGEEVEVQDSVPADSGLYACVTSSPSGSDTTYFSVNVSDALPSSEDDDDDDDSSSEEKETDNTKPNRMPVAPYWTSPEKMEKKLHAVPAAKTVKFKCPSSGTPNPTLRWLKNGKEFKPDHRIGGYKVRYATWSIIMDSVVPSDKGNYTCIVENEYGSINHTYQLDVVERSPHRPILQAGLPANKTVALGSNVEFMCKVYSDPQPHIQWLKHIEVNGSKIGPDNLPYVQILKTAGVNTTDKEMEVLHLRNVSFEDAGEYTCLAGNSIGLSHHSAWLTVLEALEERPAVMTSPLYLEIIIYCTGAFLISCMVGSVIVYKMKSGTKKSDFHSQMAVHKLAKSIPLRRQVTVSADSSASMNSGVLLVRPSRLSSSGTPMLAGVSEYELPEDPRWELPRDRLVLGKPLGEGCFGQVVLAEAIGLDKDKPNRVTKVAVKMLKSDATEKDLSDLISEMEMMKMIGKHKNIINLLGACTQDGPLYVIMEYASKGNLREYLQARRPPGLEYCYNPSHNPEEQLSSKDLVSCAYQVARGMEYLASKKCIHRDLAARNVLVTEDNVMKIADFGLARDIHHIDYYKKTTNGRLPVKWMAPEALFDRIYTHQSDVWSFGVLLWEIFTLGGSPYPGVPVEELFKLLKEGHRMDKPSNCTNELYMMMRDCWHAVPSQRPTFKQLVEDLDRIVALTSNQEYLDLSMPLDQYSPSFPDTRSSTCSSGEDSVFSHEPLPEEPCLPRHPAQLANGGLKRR
Method in brief: as §1

[3] = biological target: T2, MSK2 (h) (Homo sapiens, UniProt O75676)
T2 construct: purchased Millipore
T2 sequence (O75676 whole entry): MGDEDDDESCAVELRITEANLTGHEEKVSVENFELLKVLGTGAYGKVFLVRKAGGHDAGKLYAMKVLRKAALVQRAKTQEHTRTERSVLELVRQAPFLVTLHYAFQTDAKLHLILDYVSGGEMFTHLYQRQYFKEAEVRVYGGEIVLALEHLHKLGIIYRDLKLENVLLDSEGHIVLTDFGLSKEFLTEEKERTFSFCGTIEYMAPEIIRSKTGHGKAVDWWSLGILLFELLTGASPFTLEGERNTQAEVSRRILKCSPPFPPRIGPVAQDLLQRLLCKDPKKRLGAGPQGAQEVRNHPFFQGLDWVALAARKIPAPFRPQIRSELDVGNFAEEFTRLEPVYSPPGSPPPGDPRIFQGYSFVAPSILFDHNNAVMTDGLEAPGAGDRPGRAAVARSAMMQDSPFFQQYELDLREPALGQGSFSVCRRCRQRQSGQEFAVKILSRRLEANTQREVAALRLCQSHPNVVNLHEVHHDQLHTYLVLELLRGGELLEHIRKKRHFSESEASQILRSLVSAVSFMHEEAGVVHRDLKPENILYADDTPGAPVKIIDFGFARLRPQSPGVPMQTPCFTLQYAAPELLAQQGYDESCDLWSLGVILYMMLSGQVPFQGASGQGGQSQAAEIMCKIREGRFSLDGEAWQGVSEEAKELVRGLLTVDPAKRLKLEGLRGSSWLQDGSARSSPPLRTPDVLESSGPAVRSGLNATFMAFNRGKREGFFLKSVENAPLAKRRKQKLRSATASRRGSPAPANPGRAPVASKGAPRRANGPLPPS
Method in brief: as §1

[4] = biological target: T3, PKCα (h) (Homo sapiens, UniProt P17252)
T3 construct: purchased Millipore
Method in brief: as §1

[5] = biological target: VRK2 (h) (Homo sapiens, UniProt Q86Y07)
VRK2 (h), sequence (Q86Y07 whole entry): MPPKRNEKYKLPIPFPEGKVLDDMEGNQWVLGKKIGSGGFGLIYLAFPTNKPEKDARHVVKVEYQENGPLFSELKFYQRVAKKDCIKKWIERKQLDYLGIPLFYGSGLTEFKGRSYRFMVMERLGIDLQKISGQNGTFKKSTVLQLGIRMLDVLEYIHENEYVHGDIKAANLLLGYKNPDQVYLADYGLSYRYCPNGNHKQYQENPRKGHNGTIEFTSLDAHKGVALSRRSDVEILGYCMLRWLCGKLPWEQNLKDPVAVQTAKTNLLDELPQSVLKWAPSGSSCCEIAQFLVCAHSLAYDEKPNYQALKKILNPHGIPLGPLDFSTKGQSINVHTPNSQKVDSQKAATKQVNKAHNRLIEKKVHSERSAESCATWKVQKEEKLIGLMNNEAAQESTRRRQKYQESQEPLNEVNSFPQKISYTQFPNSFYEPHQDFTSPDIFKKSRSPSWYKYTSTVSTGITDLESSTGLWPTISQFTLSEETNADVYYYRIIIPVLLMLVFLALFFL
Method in brief: as §1

[6] = biological target: FGFR1 (h) (Homo sapiens, UniProt P11362)
FGFR1 (h), sequence (P11362 22-822): as the sequence (P11362 22-822 V561M) above, with M540V counted along it
Method in brief: as §1

[7] = biological target: PRK2 (h) (Homo sapiens, UniProt Q16513)
Method in brief: as §1

[8] = biological target: T4, CaMKIIβ (h) (Homo sapiens, UniProt Q13554)
T4 construct: purchased Millipore
Method in brief: as §1

[9] = biological target: Flt3(D835Y) (h) (Homo sapiens, UniProt P36888, D835Y)
Method in brief: as §1

[10] = biological target: SAPK2b (h) (Homo sapiens, UniProt Q15759)
SAPK2b (h), sequence (Q15759 whole entry): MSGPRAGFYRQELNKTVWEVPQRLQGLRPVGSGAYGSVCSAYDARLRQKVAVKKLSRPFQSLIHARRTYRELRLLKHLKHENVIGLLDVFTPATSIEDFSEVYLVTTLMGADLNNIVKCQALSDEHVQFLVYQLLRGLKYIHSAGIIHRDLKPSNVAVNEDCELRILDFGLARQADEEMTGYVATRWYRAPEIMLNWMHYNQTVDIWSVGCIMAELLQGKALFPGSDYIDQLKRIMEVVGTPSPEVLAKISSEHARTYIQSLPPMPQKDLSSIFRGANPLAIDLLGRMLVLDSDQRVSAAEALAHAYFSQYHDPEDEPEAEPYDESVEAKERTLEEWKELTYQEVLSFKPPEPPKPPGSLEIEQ
Method in brief: as §1

[11] = biological target: RIPK2 (h) (Homo sapiens, UniProt O43353)
RIPK2 (h), sequence (O43353 whole entry): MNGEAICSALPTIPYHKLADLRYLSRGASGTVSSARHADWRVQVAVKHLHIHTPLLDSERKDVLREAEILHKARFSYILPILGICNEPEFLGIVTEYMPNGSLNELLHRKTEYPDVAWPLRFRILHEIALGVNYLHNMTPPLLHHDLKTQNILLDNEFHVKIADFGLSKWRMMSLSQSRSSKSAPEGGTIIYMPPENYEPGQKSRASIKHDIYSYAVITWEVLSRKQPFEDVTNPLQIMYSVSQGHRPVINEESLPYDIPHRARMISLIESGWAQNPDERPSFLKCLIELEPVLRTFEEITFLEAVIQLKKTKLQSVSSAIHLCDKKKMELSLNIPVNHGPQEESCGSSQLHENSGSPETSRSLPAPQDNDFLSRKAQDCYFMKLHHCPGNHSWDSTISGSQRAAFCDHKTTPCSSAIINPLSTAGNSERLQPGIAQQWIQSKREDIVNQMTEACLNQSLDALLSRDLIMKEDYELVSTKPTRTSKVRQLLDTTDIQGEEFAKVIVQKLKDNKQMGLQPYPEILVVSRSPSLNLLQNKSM
Method in brief: as §1

[12] = biological target: Abl (h) (Homo sapiens, UniProt P00519)
Method in brief: as §1

[13] = biological target: T5, MINK (h) (Homo sapiens, UniProt Q8N4C8)
T5 construct: purchased Millipore
Method in brief: as §1

[14] = biological target: T6, EphB2 (h) (Homo sapiens, UniProt P29323)
T6 sequence (P29323 19-1055): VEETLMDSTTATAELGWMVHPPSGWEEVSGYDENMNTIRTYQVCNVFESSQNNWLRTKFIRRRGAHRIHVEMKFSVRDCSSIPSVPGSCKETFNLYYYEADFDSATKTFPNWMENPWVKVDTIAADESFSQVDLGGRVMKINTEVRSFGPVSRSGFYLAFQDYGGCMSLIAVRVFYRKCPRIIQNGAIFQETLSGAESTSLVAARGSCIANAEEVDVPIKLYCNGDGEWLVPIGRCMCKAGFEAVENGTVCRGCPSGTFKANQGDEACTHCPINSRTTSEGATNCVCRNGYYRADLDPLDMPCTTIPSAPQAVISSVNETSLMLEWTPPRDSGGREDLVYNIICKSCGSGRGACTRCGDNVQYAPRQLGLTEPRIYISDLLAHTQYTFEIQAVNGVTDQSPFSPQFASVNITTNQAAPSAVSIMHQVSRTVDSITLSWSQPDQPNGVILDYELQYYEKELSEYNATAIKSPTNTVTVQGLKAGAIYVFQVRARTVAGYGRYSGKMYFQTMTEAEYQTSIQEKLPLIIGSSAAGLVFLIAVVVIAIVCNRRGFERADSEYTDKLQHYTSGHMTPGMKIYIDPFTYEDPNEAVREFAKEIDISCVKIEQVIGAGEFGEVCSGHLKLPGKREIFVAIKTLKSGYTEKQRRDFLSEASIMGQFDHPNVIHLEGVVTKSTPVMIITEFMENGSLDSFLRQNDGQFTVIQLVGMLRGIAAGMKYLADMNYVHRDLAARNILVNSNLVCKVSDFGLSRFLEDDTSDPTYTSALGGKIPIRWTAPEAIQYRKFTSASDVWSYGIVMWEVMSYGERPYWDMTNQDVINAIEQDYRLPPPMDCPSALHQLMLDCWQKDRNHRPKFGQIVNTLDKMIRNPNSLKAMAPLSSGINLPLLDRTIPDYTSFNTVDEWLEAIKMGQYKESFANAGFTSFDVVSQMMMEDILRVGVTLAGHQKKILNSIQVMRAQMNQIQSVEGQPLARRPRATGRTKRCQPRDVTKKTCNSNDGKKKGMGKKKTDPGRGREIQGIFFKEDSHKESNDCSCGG
Method in brief: as §1

T1 sequence (Q9H2X6 whole entry): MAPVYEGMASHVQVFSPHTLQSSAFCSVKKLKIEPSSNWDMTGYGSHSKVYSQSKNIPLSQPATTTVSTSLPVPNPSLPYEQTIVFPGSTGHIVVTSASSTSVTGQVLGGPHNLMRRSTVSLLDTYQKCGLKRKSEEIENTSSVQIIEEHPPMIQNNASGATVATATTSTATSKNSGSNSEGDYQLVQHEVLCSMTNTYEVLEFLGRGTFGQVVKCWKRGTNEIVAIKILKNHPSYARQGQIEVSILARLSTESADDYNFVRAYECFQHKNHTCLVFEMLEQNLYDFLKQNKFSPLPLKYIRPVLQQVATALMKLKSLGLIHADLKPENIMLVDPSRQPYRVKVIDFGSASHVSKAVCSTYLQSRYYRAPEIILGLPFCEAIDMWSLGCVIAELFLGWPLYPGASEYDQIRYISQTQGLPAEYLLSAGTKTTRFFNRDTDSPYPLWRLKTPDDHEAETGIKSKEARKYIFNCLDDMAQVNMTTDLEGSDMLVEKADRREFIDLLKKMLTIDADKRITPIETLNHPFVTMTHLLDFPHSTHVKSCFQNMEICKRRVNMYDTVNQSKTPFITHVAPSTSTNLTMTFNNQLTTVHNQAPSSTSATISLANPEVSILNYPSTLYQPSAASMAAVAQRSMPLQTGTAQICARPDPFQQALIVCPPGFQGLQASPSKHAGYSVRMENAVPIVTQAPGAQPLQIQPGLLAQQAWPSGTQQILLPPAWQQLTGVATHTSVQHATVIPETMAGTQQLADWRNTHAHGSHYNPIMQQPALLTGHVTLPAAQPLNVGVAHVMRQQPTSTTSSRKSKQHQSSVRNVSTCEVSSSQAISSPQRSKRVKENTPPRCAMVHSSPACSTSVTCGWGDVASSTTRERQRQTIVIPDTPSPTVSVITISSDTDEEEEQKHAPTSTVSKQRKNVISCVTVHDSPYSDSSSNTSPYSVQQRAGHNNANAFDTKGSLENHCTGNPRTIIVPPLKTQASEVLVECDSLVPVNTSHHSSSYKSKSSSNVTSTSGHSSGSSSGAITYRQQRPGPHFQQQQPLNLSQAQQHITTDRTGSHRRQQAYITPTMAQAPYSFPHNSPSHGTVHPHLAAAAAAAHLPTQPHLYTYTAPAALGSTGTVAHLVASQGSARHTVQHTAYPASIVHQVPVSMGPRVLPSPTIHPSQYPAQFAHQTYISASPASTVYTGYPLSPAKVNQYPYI

FAKLAARLYRKALARQLGVAA [MMI-0300]
% activity [1]: 73% | % activity [2]: 74% | % activity [3]: 56% | % activity [4]: 89% | % activity [5]: 161% | % activity [6]: 55% | % activity [7]: 33% | % activity [8]: 2% | % activity [9]: 80% | % activity [10]: 81% | % activity [11]: 97% | % activity [12]: 69% | % activity [13]: 48% | % activity [14]: 18%

HRRIKAWLKKIKALARQLGVAA (Mammalian) [MMI-0500]
% activity [1]: 38% | % activity [3]: 14% | % activity [4]: 3% | % activity [5]: 169% | % activity [6]: 18% | % activity [7]: 7% | % activity [8]: 3% | % activity [9]: 65% | % activity [10]: 42% | % activity [11]: 30% | % activity [12]: 16% | % activity [13]: 5% | % activity [14]: 70%

KAFAKLAARLYRKALARQLGVAA [MMI-0400]
% activity [1]: 90% | % activity [2]: 74% | % activity [3]: 52% | % activity [4]: 86% | % activity [5]: 185% | % activity [6]: 59% | % activity [7]: 27% | % activity [8]: 11% | % activity [9]: 71% | % activity [10]: 82% | % activity [11]: 98% | % activity [12]: 84% | % activity [13]: 52% | % activity [14]: 22%

YARAAARQARAKALNRQLGVA (Mammalian) [MMI-0200]
% activity [2]: 72% | % activity [3]: 88% | % activity [4]: 100% | % activity [6]: 97% | % activity [7]: 74% | % activity [8]: 53% | % activity [10]: 95% | % activity [11]: 98% | % activity [14]: 128%
